For this series, the target named is human cGAS (Homo sapiens, UniProt Q8N884 1-522). Kind of series: EMSA; 1 uM DNA, 3 uM cGAS; EMSA: 1 uM DNA, 0-5 uM cGAS, 20 mM Tris-HCl pH 8.0 (4 C), 200 mM NaCl, on ice 30 min; 8% native PAGE in 25 mM Tris-HCl pH 8.5, 190 mM glycine; ethidium bromide. To be noted: protein: recombinant; tags: none (N-terminal His6-lipoyl domain removed with TEV protease); 20 bp duplex, unpaired G3 on all four ends (fork at both ends). Background: Mobility shift assays separate free from complexed probe on a gel.

The record followed here is PMC10994814, “Enzymatic activity of cGAS in the presence of three types of DNAs: limited cGAS stimulation by single-stranded HIV-1 SL2 DNA”.

human cGAS, sequence (Q8N884 whole entry, the tested form may be a part): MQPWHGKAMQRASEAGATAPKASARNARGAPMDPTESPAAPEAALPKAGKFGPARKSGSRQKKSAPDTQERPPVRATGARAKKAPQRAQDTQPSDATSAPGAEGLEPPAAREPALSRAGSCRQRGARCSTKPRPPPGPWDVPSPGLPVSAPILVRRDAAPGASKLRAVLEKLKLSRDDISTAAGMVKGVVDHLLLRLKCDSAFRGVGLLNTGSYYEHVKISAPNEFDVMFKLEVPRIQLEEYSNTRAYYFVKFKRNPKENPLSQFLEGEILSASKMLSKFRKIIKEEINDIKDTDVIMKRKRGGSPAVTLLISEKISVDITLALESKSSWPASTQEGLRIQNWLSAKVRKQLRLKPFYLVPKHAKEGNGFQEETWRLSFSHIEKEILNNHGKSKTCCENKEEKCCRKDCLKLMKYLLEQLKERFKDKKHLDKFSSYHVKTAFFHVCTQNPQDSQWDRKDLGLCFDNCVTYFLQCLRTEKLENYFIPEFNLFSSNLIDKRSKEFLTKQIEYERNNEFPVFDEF

B1: G3 Y-form DNA (dsDNA)
DNA 1: GGGGAACTCCAGCAGGACCATTGGGG
DNA 2: GGGCAATGGTCCTGCTGGAGTTCGGG
B1: the binding signal is ~0 % unbound DNA at cGAS/DNA ratio 3.
